Paper PMC3181223
Blank lines part the entries; values can stand above or below the substance they belong to.

Tests used:
[1] = target: Actin purified from rabbit muscle (rabbit) (UniProt P68135); assay: depolymerisation of single filaments in a microfluidic flow (fluorescence microscopy); MgADP-actin filaments depolymerising at different profilin concentrations; saturation curve of the off-rate fitted assuming profilin in rapid equilibrium with the barbed end; room temperature
[2] = target: Actin purified from rabbit muscle (rabbit) (UniProt P68135); assay: depolymerisation of single filaments in a microfluidic flow (fluorescence microscopy); CrATP-actin filaments (as ADP-Pi-actin) depolymerising at different profilin concentrations; saturation curve of the off-rate fitted assuming profilin in rapid equilibrium with the barbed end; room temperature
[3] = target: Actin purified from rabbit muscle (rabbit) (UniProt P68135); assay: depolymerisation of single filaments in a microfluidic flow (fluorescence microscopy); filaments grown from MgATP-actin, depolymerised in F-buffer (pH 7.8, 100 mM KCl, 1 mM MgCl2); velocities from an exponential fit of 1/vdepol against the age of F-actin, and from a direct fit of length against time; room temperature
[4] = system: P68135; assay: depolymerisation of single filaments in a microfluidic flow (fluorescence microscopy); filaments grown from MgATP-actin, depolymerised in F-buffer (pH 7.8, 100 mM KCl, 1 mM MgCl2); velocities from an exponential fit of 1/vdepol against the age of F-actin, and from a direct fit of length …; conditions: other: depolymerisation of single filaments in a microfluidic flow (fluorescence microscopy)

- koff [1]: 51.6 s⁻¹
- koff [2]: 4.7 s⁻¹
Substance: profilin-actin (from UniProt P62962 1-140; P68135 1-377) (complex)

- depolymerization velocity of ADP-actin subunits at the barbed end (direct fit of length against time) [3]: 6 subunits/s
- depolymerization velocity of ADP-actin subunits at the barbed end (exponential fit) [3]: 6.2 subunits/s
Substance: Actin purified from rabbit muscle (from UniProt P68135 1-377) (natural protein)

Substance: Actin purified from rabbit muscle
- global depolymerization velocity of ADP-Pi-actin subunits at the barbed end (direct fit of length against time) [4]: 1.5 subunits/s
- global depolymerization velocity of ADP-Pi-actin subunits at the barbed end (dissociation as ADP-Pi-actin, or Pi release and then dissociation; exponential fit) [4]: 1.5±0.4 subunits/s
